Data published in IntAct's records for PubMed 15023544.

B1: 14-3-3 protein zeta/delta (Homo sapiens), P63104 (parent)
chain: MDKNELVQKAKLAEQAERYDDMAACMKSVTEQGAELSNEERNLLSVAYKNVVGARRSSWRVVSSIEQKTEGAEKKQQMAREYREKIETELRDICNDVLSLLEKFLIPNASQAESKVFYLKMKGDYYRYLAEVAAGDDKKGIVDQSQQAYQEAFEISKKEMQPTHPIRLGLALNFSVFYYEILNSPEKACSLAKTAFDEAIAELDTLSEESYKDSTLIMQLLRDNLTLWTSDTQGDEAEAGEGGEN

Variants of: B1
Settings: with m3k5_human MAP3K5, Q99683
m3k5_human MAP3K5, Q99683, sequence (Q99683 whole entry): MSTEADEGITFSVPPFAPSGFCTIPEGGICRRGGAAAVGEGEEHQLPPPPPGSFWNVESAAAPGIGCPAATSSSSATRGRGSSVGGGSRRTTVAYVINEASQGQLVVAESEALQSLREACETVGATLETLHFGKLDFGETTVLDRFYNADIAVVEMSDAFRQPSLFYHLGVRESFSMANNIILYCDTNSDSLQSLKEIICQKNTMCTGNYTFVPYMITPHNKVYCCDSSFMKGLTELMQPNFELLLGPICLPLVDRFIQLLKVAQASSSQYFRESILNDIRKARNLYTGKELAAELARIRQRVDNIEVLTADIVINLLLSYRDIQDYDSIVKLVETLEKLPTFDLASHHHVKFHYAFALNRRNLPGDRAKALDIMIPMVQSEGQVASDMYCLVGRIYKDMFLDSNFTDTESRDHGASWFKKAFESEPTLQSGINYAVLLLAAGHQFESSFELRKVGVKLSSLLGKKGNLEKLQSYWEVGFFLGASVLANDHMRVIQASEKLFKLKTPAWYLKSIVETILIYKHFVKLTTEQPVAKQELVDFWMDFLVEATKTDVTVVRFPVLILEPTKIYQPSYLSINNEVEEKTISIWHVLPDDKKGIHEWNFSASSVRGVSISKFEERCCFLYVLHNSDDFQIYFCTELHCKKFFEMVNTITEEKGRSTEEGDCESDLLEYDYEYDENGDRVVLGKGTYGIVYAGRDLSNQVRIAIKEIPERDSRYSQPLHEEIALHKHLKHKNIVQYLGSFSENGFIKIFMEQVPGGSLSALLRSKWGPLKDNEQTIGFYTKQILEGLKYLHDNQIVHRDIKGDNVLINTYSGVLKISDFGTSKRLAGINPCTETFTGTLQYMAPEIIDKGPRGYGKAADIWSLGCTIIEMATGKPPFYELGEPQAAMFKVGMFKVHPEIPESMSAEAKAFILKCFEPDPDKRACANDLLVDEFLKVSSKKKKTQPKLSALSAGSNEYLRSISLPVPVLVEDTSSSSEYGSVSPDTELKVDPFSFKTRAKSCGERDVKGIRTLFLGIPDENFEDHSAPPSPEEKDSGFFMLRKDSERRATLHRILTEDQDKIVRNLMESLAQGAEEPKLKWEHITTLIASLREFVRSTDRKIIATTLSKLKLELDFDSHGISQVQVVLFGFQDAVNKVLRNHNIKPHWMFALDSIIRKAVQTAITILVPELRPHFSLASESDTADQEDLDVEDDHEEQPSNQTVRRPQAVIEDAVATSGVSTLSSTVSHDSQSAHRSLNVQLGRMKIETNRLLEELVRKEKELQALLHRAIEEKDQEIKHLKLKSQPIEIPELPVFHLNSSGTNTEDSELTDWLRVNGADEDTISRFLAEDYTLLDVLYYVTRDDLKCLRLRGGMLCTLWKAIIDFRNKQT

| effect of a mutation on the interaction | Variant |
| --- | --- |
| decreasing interaction | K49E;R56E;R60E;V176D;L220E |
